Reference: US20130071375

Legend:
[1] = target: High mobility group box 1 (UniProt P09429)
[2] = target: Thrombomodulin (recombinant) (UniProt P07204)
Thrombomodulin (recombinant), sequence (P07204 whole entry, looked up): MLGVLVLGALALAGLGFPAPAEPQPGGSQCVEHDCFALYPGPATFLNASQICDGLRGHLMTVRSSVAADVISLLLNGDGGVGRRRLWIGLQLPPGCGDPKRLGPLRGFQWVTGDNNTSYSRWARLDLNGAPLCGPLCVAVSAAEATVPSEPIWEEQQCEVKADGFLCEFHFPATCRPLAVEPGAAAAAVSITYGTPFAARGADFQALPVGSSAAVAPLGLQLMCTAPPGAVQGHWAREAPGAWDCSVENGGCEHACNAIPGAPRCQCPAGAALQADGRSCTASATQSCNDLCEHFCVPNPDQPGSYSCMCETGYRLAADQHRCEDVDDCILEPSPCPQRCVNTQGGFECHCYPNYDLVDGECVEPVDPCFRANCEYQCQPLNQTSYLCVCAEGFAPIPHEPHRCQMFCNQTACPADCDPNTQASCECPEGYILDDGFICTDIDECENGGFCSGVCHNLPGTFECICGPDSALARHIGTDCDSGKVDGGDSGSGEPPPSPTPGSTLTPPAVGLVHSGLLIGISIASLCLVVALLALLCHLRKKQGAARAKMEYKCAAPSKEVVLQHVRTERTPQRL

High mobility group box 1, sequence (P09429 whole entry): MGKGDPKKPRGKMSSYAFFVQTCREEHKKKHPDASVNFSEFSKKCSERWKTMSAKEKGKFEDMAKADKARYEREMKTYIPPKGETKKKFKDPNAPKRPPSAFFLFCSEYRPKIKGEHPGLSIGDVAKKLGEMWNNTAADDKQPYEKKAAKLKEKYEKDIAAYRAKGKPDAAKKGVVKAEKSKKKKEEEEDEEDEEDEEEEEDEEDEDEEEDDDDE

Substance | proteolytic cleavage of HMGB1 (400 nmol/L) by 2 nM protease, SDS-PAGE and immunoblot [1] | acceleration of HMGB1 cleavage by 2 nM PCgla/MeizoTh with 400 nmol/L recombinant TM, SDS-PAGE and immunoblot [2] | proteolytic degradation of HMGB1 by 100 nM APC, with or without soluble EPCR and/or PC/PS/PE vesicles, 2 hours at 37 C [1]
PCgla/meizothrombin (meizothrombin with its Gla-domain replaced by that of protein C; Factor Xa-activated PCgla/prothrombin-3A) | PCgla/MeizoTh can proteolytically cleave HMGB1 | TM can function as a cofactor to markedly accelerate the cleavage reaction | –
Activated protein C | – | – | APC had no direct proteolytic effect on HMGB1 ... did not lead to the degradation of HMGB1 even after 2 hours incubation at 37 °C (data not shown)
